Results on one substance are retold here after patent publication US20210283178A1.

Assay [1] deals with AIQ-HLA-A2 complex (… peptide loaded on recombinant human HLA-A2:Ig fusion protein, DimerX I) (human). The experiment in a line: flow cytometry of CAR-T cells incubated with biotinylated AIQ-HLA-A2, then streptavidin-APC; 82.4% GFP+ APC- (lower right); untransduced T cells: 0.00% in the upper right quadrant.
For assay [2], the target named is HLA-A2 alone (recombinant human HLA-A2:Ig fusion protein, DimerX I, without added peptide) (human). The assay is described as follows: flow cytometry of CAR-T cells incubated with biotinylated HLA-A2, then streptavidin-APC; 82.9% GFP+ APC- (lower right); untransduced T cells: 0.02% in the upper right quadrant. (In general: Flow cytometry measures light scatter and fluorescence of single cells or particles in a stream.)

For assay [3], the target named is SLL-HLA-A2 complex (NY-ESO-1 peptide … loaded on recombinant human HLA-A2:Ig fusion protein, DimerX I) (human). The assay is described as follows: flow cytometry of CAR-T cells incubated with biotinylated SLL-HLA-A2, then streptavidin-APC; 82.6% GFP+ APC- (lower right); untransduced T cells: 0.04% in the upper right quadrant.

With “CD19 CAR expressed on human CD8+ T cells”, the values for the % of cells in the upper right quadrant (GFP+ / streptavidin-APC+) in assay [1], in assay [2] and in assay [3] were 0.17%, 0.13% and 0.03%, respectively.
